# Assay results: the Human Domainome abundance scans (Beltran et al. 2025)
# ± gives the uncertainty stated by the source.
# B1: Neutrophil cytosol factor 2, residues 456 to 514; numbered along this chain, P19878 (parent)
# chain: LKKGSQVEALFSYEATQPEDLEFQEGDIILVLSKVNEEWLEGECKGKVGIFPKVFVEDC
# Variants of: B1
# Assay: abundance fitness (aPCA) (normalised: wild type 0, dead -1); higher = more abundant; growth selection in yeast, the domain comes from the species named
# Conditions: Homo sapiens
row,Variant,abundance fitness
1,LKKGSQVEALFSYEATQPEDLEFQEGDIILVLSKVNEVWLEGECKGKVGIFPKVFVEDC [E38V],-0.479 ± 0.11
2,LKKGSQVEALFSYEATQPEDLEFQEGDIILVLSKVNEIWLEGECKGKVGIFPKVFVEDC [E38I],-0.097 ± 0.12
3,LKKGSQVEALFSYEATQPEDLEFQEGDIILVLSKVNESWLEGECKGKVGIFPKVFVEDC [E38S],-0.701 ± 0.13
4,LKKGSQVEALFSYEATQPEDLEFQEGDIILVLSKVNEYWLEGECKGKVGIFPKVFVEDC [E38Y],-0.266 ± 0.11
5,LKKGSQVEALFSYEATQPEDLEFQEGDIILVLSKVNENWLEGECKGKVGIFPKVFVEDC [E38N],-0.131 ± 0.12
6,LKKGSQVEALFSYEATQPEDLEFQEGDIILVLSKVNEKWLEGECKGKVGIFPKVFVEDC [E38K],-0.649 ± 0.31
7,LKKGSQVEALFSYEATQPEDLEFQEGDIILVLSKVNERWLEGECKGKVGIFPKVFVEDC [E38R],-0.941 ± 0.21
8,LKKGSQVEALFSYEATQPEDLEFQEGDIILVLSKVNEAWLEGECKGKVGIFPKVFVEDC [E38A],-0.329 ± 0.13
9,LKKGSQVEALFSYEATQPEDLEFQEGDIILVLSKVNECWLEGECKGKVGIFPKVFVEDC [E38C],-0.702 ± 0.15
10,LKKGSQVEALFSYEATQPEDLEFQEGDIILVLSKVNEDWLEGECKGKVGIFPKVFVEDC [E38D],0.028 ± 0.12
11,LKKGSQVEALFSYEATQPEDLEFQEGDIILVLSKVNEWWLEGECKGKVGIFPKVFVEDC [E38W],-0.396 ± 0.24
12,LKKGSQVEALFSYEATQPEDLEFQEGDIILVLSKVNEGWLEGECKGKVGIFPKVFVEDC [E38G],-0.207 ± 0.098
13,LKKGSQVEALFSYEATQPEDLEFQEGDIILVLSKVNEPWLEGECKGKVGIFPKVFVEDC [E38P],-0.496 ± 0.19
14,LKKGSQVEALFSYEATQPEDLEFQEGDIILVLSKVNEHWLEGECKGKVGIFPKVFVEDC [E38H],-0.362 ± 0.17
15,LKKGSQVEALFSYEATQPEDLEFQEGDIILVLSKVNEEFLEGECKGKVGIFPKVFVEDC [W39F],-0.49 ± 0.11
16,LKKGSQVEALFSYEATQPEDLEFQEGDIILVLSKVNEEYLEGECKGKVGIFPKVFVEDC [W39Y],-0.321 ± 0.1
17,LKKGSQVEALFSYEATQPEDLEFQEGDIILVLSKVNEEDLEGECKGKVGIFPKVFVEDC [W39D],-0.598 ± 0.17
18,LKKGSQVEALFSYEATQPEDLEFQEGDIILVLSKVNEEHLEGECKGKVGIFPKVFVEDC [W39H],-1.03 ± 0.24
19,LKKGSQVEALFSYEATQPEDLEFQEGDIILVLSKVNEECLEGECKGKVGIFPKVFVEDC [W39C],-0.379 ± 0.099
20,LKKGSQVEALFSYEATQPEDLEFQEGDIILVLSKVNEENLEGECKGKVGIFPKVFVEDC [W39N],-0.196 ± 0.11
21,LKKGSQVEALFSYEATQPEDLEFQEGDIILVLSKVNEEQLEGECKGKVGIFPKVFVEDC [W39Q],-0.864 ± 0.45
22,LKKGSQVEALFSYEATQPEDLEFQEGDIILVLSKVNEELLEGECKGKVGIFPKVFVEDC [W39L],-0.8 ± 0.14
23,LKKGSQVEALFSYEATQPEDLEFQEGDIILVLSKVNEEGLEGECKGKVGIFPKVFVEDC [W39G],-0.414 ± 0.1

row,Variant,abundance fitness
1,LKKGSQVEALFSYEATQPEDLEFQEGDIILVLSKVNEETLEGECKGKVGIFPKVFVEDC [W39T],-0.735 ± 0.19
2,LKKGSQVEALFSYEATQPEDLEFQEGDIILVLSKVNEEMLEGECKGKVGIFPKVFVEDC [W39M],0.036 ± 0.26
3,LKKGSQVEALFSYEATQPEDLEFQEGDIILVLSKVNEESLEGECKGKVGIFPKVFVEDC [W39S],-0.666 ± 0.13
4,LKKGSQVEALFSYEATQPEDLEFQEGDIILVLSKVNEEALEGECKGKVGIFPKVFVEDC [W39A],-0.643 ± 0.17
5,LKKGSQVEALFSYEATQPEDLEFQEGDIILVLSKVNEEELEGECKGKVGIFPKVFVEDC [W39E],-0.269 ± 0.26
6,LKKGSQVEALFSYEATQPEDLEFQEGDIILVLSKVNEEILEGECKGKVGIFPKVFVEDC [W39I],-0.109 ± 0.091
7,LKKGSQVEALFSYEATQPEDLEFQEGDIILVLSKVNEEPLEGECKGKVGIFPKVFVEDC [W39P],-0.598 ± 0.2
8,LKKGSQVEALFSYEATQPEDLEFQEGDIILVLSKVNEERLEGECKGKVGIFPKVFVEDC [W39R],-0.893 ± 0.16
9,LKKGSQVEALFSYEATQPEDLEFQEGDIILVLSKVNEEWCEGECKGKVGIFPKVFVEDC [L40C],-0.614 ± 0.17
10,LKKGSQVEALFSYEATQPEDLEFQEGDIILVLSKVNEEWDEGECKGKVGIFPKVFVEDC [L40D],-0.544 ± 0.17
11,LKKGSQVEALFSYEATQPEDLEFQEGDIILVLSKVNEEWAEGECKGKVGIFPKVFVEDC [L40A],-0.731 ± 0.18
12,LKKGSQVEALFSYEATQPEDLEFQEGDIILVLSKFNEEWLEGECKGKVGIFPKVFVEDC [V35F],-0.264 ± 0.12
13,LKKGSQVEALFSYEATQPEDLEFQEGDIILVLSKHNEEWLEGECKGKVGIFPKVFVEDC [V35H],-0.806 ± 0.23
14,LKKGSQVEALFSYEATQPEDLEFQEGDIILVLSKRNEEWLEGECKGKVGIFPKVFVEDC [V35R],-0.235 ± 0.096
15,LKKGSQVEALFSYEATQPEDLEFQEGDIILVLSKCNEEWLEGECKGKVGIFPKVFVEDC [V35C],-0.475 ± 0.13
16,LKKGSQVEALFSYEATQPEDLEFQEGDIILVLSKNNEEWLEGECKGKVGIFPKVFVEDC [V35N],-0.517 ± 0.15
17,LKKGSQVEALFSYEATQPEDLEFQEGDIILVLSKTNEEWLEGECKGKVGIFPKVFVEDC [V35T],-0.808 ± 0.2
18,LKKGSQVEALFSYEATQPEDLEFQEGDIILVLSKENEEWLEGECKGKVGIFPKVFVEDC [V35E],-1.04 ± 0.48
19,LKKGSQVEALFSYEATQPEDLEFQEGDIILVLSKLNEEWLEGECKGKVGIFPKVFVEDC [V35L],-0.096 ± 0.089
20,LKKGSQVEALFSYEATQPEDLEFQEGDIILVLSKKNEEWLEGECKGKVGIFPKVFVEDC [V35K],-0.045 ± 0.23
21,LKKGSQVEALFSYEATQPEDLEFQEGDIILVLSKWNEEWLEGECKGKVGIFPKVFVEDC [V35W],-0.019 ± 0.16
22,LKKGSQVEALFSYEATQPEDLEFQEGDIILVLSKSNEEWLEGECKGKVGIFPKVFVEDC [V35S],-0.459 ± 0.1
